Reference: US7976843B2, “Method for screening peptides for use in immunotherapy” (Institut National de la Santa et de la Recherche Medicale …, priority 2000, dated 2011)
Where two headings read alike, the source gives them in different places.

Experiments:
[1] = target: T1, HLA A2.1 molecule (Homo sapiens, UniProt P04439, D140Y/D185E/D98H/E176V/E277Q/G131W/G231S/I119V/I121R/I166T/I218V/L300P/L318F/N151K/N90K/P208A/P217A/Q86G/Q94H/R138H/R169H/T345S); assay: Stability of the peptide/HLA A2.1 complex (DC50) on T2 cells, flow cytometry; type: binding
Protocol: For each incubation time, the cells are then labeled, as indicated above, with the BB7.2 antibody, and analyzed by flow cytometry in order to evaluate the amount of peptide/HLA A2.1 complex present at their surface. […] The DC50 (dissociation complex: DC) is defined as being the time required for the loss of 50% of the HLA A2.1/peptide complexes stabilized at t=0.

[2] = target: T1, HLA A2.1 molecule; type: binding
[3] = test system: RMAS-HHD targets loaded with peptide; assay: Immunogenicity: CTL generation in HHD transgenic mice, 51Cr lysis of peptide-loaded targets; type: in vivo; details: for killing of RMAS-HHD cells loaded with natural peptide or its P1Y variant: CTLs induced in HHD mice sensitized with the natural peptide, FIG. 1; for immunogenicity (in words): HHD mice (also humans); for percentage of HHD mice in which a CTL response is induced: mice sensitized with the peptide
[4] = test system: EL-4/HHD cells; assay: Antitumor protection after peptide vaccination, EL-4/HHD graft; details: 10 HHD mice, two injections two weeks apart; EL-4/HHD graft
[5] = […], arrow in neighbouring cell gives direction
[6] = native peptides, time for loss of 50% of HLA A2.1/peptide complexes
[7] = HHD mice, 100 μg peptide s.c., responder: specific cytotoxicity >15% above unloaded targets
[8] = native peptides, relative affinity vs reference peptide HIVpol 589, lower RA = stronger binding
[9] = native TERT peptides, reference peptide HIVpol 589
[10] = difference between DC50 of P1Y variant and natural peptide, arrow in neighbouring cell gives direction

YLIHHNTHL [HER-2/neu 466Y1]
DC50 [1]: 6 h | RA [2]: 1.4

PLEEELPRL [HBV pol 594]
DC50 Y1-DC50 WT [1, 5]: >6 h | DC50 [1, 6]: <2 h | Responders/total mice [3, 7]: 0/6 | RA [2, 8]: 4.2

ILKEPVHGV [I9V, reference compound]
DC, Native peptides [1]: 5 h | RA, Native peptides [2]: 1

SLFDFFHFL [mp 797]
DC50 ([1]; native TERT peptides): >6 h | tumor size at D28 [4]: 653±148 mm^2 | RA [2, 9]: 1.5

ALCRWGLLL [HER-2/neu 5]
Responders/total mice [3, 7]: 5/6

SLADTNSLAV [gp100 570, reference compound]
DC50 Y1-DC50 WT [1, 5]: >2 h | DC50 [1, 6]: 4 to 6 h | killing of RMAS-HHD cells loaded with natural peptide or its P1Y variant [3]: same efficacy | Responders/total mice ([3]; mouse, in vivo, sc): 6/9 | RA [2, 8]: 1.0

FLSTLVHGV [mp 676]
DC50 ([1]; native TERT peptides): >6 h | RA [2, 9]: 1.2

TDQVPFSV [gp100 209, reference compound]
DC50 Y1-DC50 WT [1, 5]: 2 h | DC50 [1, 6]: 4 h | Responders/total mice ([3]; mouse, in vivo, sc): 4/6

LLDDEAGPL [HBV pol 28]
DC50 Y1-DC50 WT [1, 5]: >2 h | DC50 [1, 6]: <2 h | Responders/total mice [3, 7]: 0/6

MLGTHTMEV [gp100 178]
Responders/total mice ([3]; mouse, in vivo, sc): 4/6 | RA [2, 8]: 0.3

KLTGDENFTI [Tyrosinase 224]
DC50 Y1-DC50 WT [1, 10]: >2 h | DC50 [1, 6]: <2 h | Responders/total mice [3, 7]: 0/6 | RA [2, 8]: >50.0

KTWGQYWQV [gp100 154]
killing of RMAS-HHD cells loaded with natural peptide or its P1Y variant [3]: same efficacy | Responders/total mice [3, 7]: 7/9

GILGPVFTL [Flu M58, reference compound]
DC50 [1, 6]: >8 h | Responders/total mice [3, 7]: 4/6 | RA [2, 8]: 0.2

PLTSIISAV [HER-2/neu 650]
DC50 [1]: <2 h | DC50 Y1-DC50 WT [1]: >4 h | immunogenicity (in words) [3]: nonimmunogenic | Responders/total mice ([3]; mouse, in vivo, sc): 0/6 | RA [2]: 1.4 | RA WT/RA Y1 [2]: 6.0

YLVPQQGFFC [HER-2/neu 1023, reference compound]
DC50 [1, 6]: 4 h | Responders/total mice ([3]; mouse, in vivo, sc): 5/10 | RA (bound stated in text) [2]: > 5 | RA [2, 8]: 19.6

ILLVVVLGV [HER-2/neu 661]
DC50 Y1-DC50 WT [1, 10]: 2 h | DC50 [1, 6]: 2 to 4 h | immunogenicity (in words) [3]: non-immunogenic | Responders/total mice ([3]; mouse, in vivo, sc): 0/6 | RA [2, 8]: >60.0

ILAKFLHWL [mhp 540]
DC50 ([1]; native TERT peptides): >6 h | RA [2, 9]: 0.3

ALIHHNTHL [HER-2/neu 466]
immunogenicity (in words) [3]: nonimmunogenic | Responders/total mice ([3]; mouse, in vivo, sc): 0/6

gp100 457Y1: P1Y variant of gp100 457 (YLDGTATLRL)
percentage of HHD mice in which a CTL response is induced [3]: 75%

FLFWLMDTYV [mp 534]
DC50 ([1]; native TERT peptides): >6 h | RA [2, 9]: 0.2

gp100 177Y1: P1Y variant of gp100 177 (YMLGTHTMEV)
percentage of HHD mice in which a CTL response is induced [3]: 75%

ILTVILGVL [Mart-1 32, reference compound]
immunogenicity (in words) [3]: non-immunogenic | Responders/total mice [3, 7]: 0/10 | RA [2, 8]: 21.1

PLTFGWCFKL [P10L]
RA, P1Y peptides [2]: 5 | RA, Native peptides ([2]; HIV 1 peptides, […]): >100

FLLSLGIHL [HBV pol 575, reference compound]
killing of RMAS-HHD cells loaded with natural peptide or its P1Y variant [3]: same efficacy | Responders/total mice [3, 7]: 6/8

PLVKLWYQL [P9L]
DC, P1Y peptides [1]: <2 h | RA, P1Y peptides [2]: 4.6 | RA, Native peptides ([2]; HIV 1 peptides, […]): >100

RLRDLLLIV [R9V]
RA, P1Y peptides [2]: 5 | RA, Native peptides ([2]; HIV 1 peptides, […]): >100

ILATFLAWL [mp 530]
DC50 ([1]; native TERT peptides): >6 h | RA [2, 9]: 0.8

ALVEICTEM [A9M]
DC, Native peptides [1]: 2 h | DC, P1Y peptides [1]: >6 h | RA, Native peptides [2]: 5 | RA, P1Y peptides [2]: 1.75

FLPWHRLFLL [Tyrosinase 207]
DC50 Y1-DC50 WT [1, 10]: >4 h | DC50 [1, 6]: 2 h | Responders/total mice [3, 7]: 0/6 | RA [2, 8]: >50.0

VLDVGDAYFSV [V11V]
DC, P1Y peptides [1]: 3.5 h | DC, Native peptides ([1]; HIV 1 peptides): 2 h | RA, P1Y peptides [2]: 2.5 | RA, Native peptides ([2]; HIV 1 peptides, […]): 4.5

PLQPEQLQV [HER-2/neu 391]
DC50 Y1-DC50 WT [1, 5]: >6 h | DC50 [1, 6]: 2 h | immunogenicity (in words) [3]: nonimmunogenic | Responders/total mice ([3]; mouse, in vivo, sc): 0/6 | RA [2, 8]: >70.0

MLLAVLYCL [Tyrosinase 1, reference compound]
Responders/total mice [3, 7]: 4/23 | percentage of HHD mice in which a CTL response is induced [3]: 17% | RA [2, 8]: >60.0

VLVKSPNHV [HER-2/neu 851, reference compound]
DC50 Y1-DC50 WT [1, 5]: 2 h | DC50 [1, 6]: 4 h | Responders/total mice [3, 7]: 1/12 | percentage of HHD mice in which a CTL response is induced [3]: 8% | RA [2, 8]: 24.0

LLWKGEGAV [L9V]
DC, Native peptides [1]: >6 h | DC, P1Y peptides [1]: >6 h | RA, Native peptides [2]: 3.1 | RA, P1Y peptides [2]: 1.3

gp100 476Y1: P1Y variant of gp100 476 (YLYRYGSFSV)
percentage of HHD mice in which a CTL response is induced [3]: 100%

VIYQYMDDL [V9L]
DC, P1Y peptides [1]: <2 h | RA, P1Y peptides [2]: 8.6 | RA, Native peptides ([2]; HIV 1 peptides, […]): >100

gp100 570Y1: P1Y variant of gp100 570 (YLADTNSLAV)
percentage of HHD mice in which a CTL response is induced [3]: 100%

HER-2/neu 369Y1: P1Y variant of HER-2/neu 369 (YIFGSLAFL)
percentage of HHD mice in which a CTL response is induced [3]: 100%

LLDGTATLRL [gp 100 457, reference compound]
DC50 Y1-DC50 WT [1, 5]: >2 h | DC50 [1, 6]: 2 to 4 h | killing of RMAS-HHD cells loaded with natural peptide or its P1Y variant [3]: same efficacy | Responders/total mice [3, 7]: 4/6 | RA [2, 8]: 1.6

NLQSLTNLL [HBV pol 985]
Responders/total mice [3, 7]: 0/6

KLTPLCVSL [K9L]
DC, P1Y peptides [1]: >6 h | DC, Native peptides ([1]; HIV 1 peptides): >6 h | RA, P1Y peptides [2]: 0.7 | RA, Native peptides ([2]; HIV 1 peptides, […]): 1.35

ELVSEFSRM [HER-2/neu 971, reference compound]
DC50 Y1-DC50 WT [1, 5]: 2 h | DC50 [1, 6]: 2 h | Responders/total mice ([3]; mouse, in vivo, sc): 0/6 | RA [2, 8]: >70.0

AMLGTHTMEV [gp100 177, reference compound]
DC50 Y1-DC50 WT [1, 5]: 2 h | DC50 [1, 6]: >6 h | killing of RMAS-HHD cells loaded with natural peptide or its P1Y variant [3]: same efficacy | Responders/total mice ([3]; mouse, in vivo, sc): 3/5 | RA [2, 8]: 0.5

CLTSTVQLV [HER-2/neu 789]
Responders/total mice [3, 7]: 4/6

TLEEITGYL [HER-2/neu 402]
DC50 Y1-DC50 WT [1, 5]: >2 h | DC50 [1, 6]: <2 h | immunogenicity (in words) [3]: nonimmunogenic | Responders/total mice ([3]; mouse, in vivo, sc): 0/6 | RA [2, 8]: 19.0

LLGCAANWIL [HBV pol 765]
DC50 Y1-DC50 WT [1, 5]: 4 h | DC50 [1, 6]: 4 h | RA [2, 8]: 2.0

VLYRYGSFSV [gp100 476, reference compound]
DC50 Y1-DC50 WT [1, 5]: 2 h | DC50 [1, 6]: 6 h | killing of RMAS-HHD cells loaded with natural peptide or its P1Y variant [3]: same efficacy | Responders/total mice [3, 7]: 8/10 | RA [2, 8]: 10.0

AFHNVAREL [A9L]
DC, P1Y peptides [1]: >6 h | RA, P1Y peptides [2]: 7 | RA, Native peptides ([2]; HIV 1 peptides, […]): >100
